# Data from patent publication EP4039268A1 (IMBA-Institut für Molekulare Biotechnologie GmbH, dated 2022).
# B1: Mrc1_8 CRD-mouse IgG2a-Fc fusion protein (Fc fusion)
# chain: FYGHCYYFESSFTRSWGQASLECLRMGASLVSIETAAESSFLSYRVEPLKSKTNFWIGMFRNVEGKWLWLNDNPVSFVNWKTGDPSGERNDCVVLASSSGLWNNIHCSSYKGFICKGGGSGGGSGGGS
# B2: Mrc1_3 CRD-mouse IgG2a-Fc fusion protein (Fc fusion)
# chain: HGFYCYLIGSTLSTFTDANHTCTNEKAYLTTVEDRYEQAFLTSLVGLRPEKYFWTGLSDVQNKGTFRWTVDEQVQFTHWNADMPGRKAGCVAMKTGVAGGLWDVLSCEEKAKFVCKGGGSGGGSGGGS
# B3: Clec7a CRD-mouse IgG2a-Fc fusion protein (Fc fusion)
# chain: HGKSCYLFSFSGNSWYGSKRHCSQLGAHLLKIDNSKEFEFIESQTSSHRINAFWIGLSRNQSEGPWFWEDGSAFFPNSFQVRNTAPQESLLHNCVWIHGSEVYNQICNTSSYSICEGGGSGGGSGGGS
# B4: Clec5a CRD-mouse IgG2a-Fc fusion protein (Fc fusion)
# chain: HQGKCFFFSFSESPWKDSMDYCATQGSTLAIVNTPEKLKYLQDIAGIENYFIGLVRQPGEKKWRWINNSVFNGNVTNQDQNFDCVTIGLTKTYDAASCEVSYRWICEGGGSGGGSGGGS
# B5: Ly75_9 CRD-mouse IgG2a-Fc fusion protein (Fc fusion)
# chain: YKDGVYSVIQKKVTWYEALNACSQSGGELASVHNPNGKLFLEDIVNRDGFPLWVGLSSHDGSESSFEWSDGRAFDYVPWQSLQSPGDCVVLYPKGIWRREKCLSVKDGAICYKGGGSGGGSGGGS
# B6: Klrg1 CRD-mouse IgG2a-Fc fusion protein (Fc fusion)
# chain: NGSHCYYFSMEKKDWNSSLKFCADKGSHLLTFPDNQGVKLFGEYLGQDFYWIGLRNIDGWRWEGGPALSLRILTNSLIQRCGAIHRNGLQASSCEVALQWICKGGGSGGGSGGGS
# B7: Lgalsl CRD-mouse IgG2a-Fc fusion protein (Fc fusion)
# chain: PFCGHIKGGMRPGKKVLVMGIVDLNPESFAISLTCGDSEDPPADVAIELKAVFTDRQLLRNSCISGERGEEQSAIPYFPFIPDQPFRVEILCEHPRFRVFVDGHQLFDFYHRIQTLSAIDTIKINGDLQIGGGSGGGSGGGS
# B8: Mrc1_6 CRD-mouse IgG2a-Fc fusion protein (Fc fusion)
# chain: YKNKCFKIFGFANEEKKSWQDARQACKGLKGNLVSIENAQEQAFVTYHMRDSTFNAWTGLNDINAEHMFLWTAGQGVHYTNWGKGYPGGRRSSLSYEDADCVVVIGGNSREAGTWMDDTCDSKQGYICQGGGSGGGSGGGS
# B9: Atrnl1 CRD-mouse IgG2a-Fc fusion protein (Fc fusion)
# chain: VGDACLRINSSRESYDNAKLYCYNLSGNLASLTTSKEVEFVLDEIQKFTQQKVSPWVGLRKINISYWGWEDMSPFTNTSLQWLPGEPNDSGFCAYLERAAVAGLKANPCTSMADGLVCEGGGSGGGSGGGS
# B10: Mrc1_5 CRD-mouse IgG2a-Fc fusion protein (Fc fusion)
# chain: YKDYQYYFSKEKETMDNARAFCKKNFGDLATIKSESEKKFLWKYINKNGGQSPYFIGMLISMDKKFIWMDGSKVDFVAWATGEPNFANDDENCVTMYTNSGFWNDINCGYPNNFICQGGGSGGGSGGGS
# B11: Ly75_7 CRD-mouse IgG2a-Fc fusion protein (Fc fusion)
# chain: YLNNLYKIISKPLTWHGALKECMKEKMRLVSITDPYQQAFLAVQATLRNSSFWIGLSSQDDELNFGWSDGKRLQFSNWAGSNEQLDDCVILDTDGFWKTADCDDNQPGAICYYGGGSGGGSGGGS
# B12: Ly75_4 CRD-mouse IgG2a-Fc fusion protein (Fc fusion)
# chain: SSLSCYKVFHIERIVRKRNWEEAERFCQALGAHLPSFSRREEIKDFVHLLKDQFSGQRWLWIGLNKRSPDLQGSWQWSDRTPVSAVMMEPEFQQDFDIRDCAAIKVLDVPWRRVWHLYEDKDYAYWKPFACDAKLEWVCQGGGSGGGSGGGS
# B13: Mrc2_8 CRD-mouse IgG2a-Fc fusion protein (Fc fusion)
# chain: FREHCYSFHMEVLLGHKEALQRCQKAGGTVLSILDEMENVFVWEHLQTAEAQSRGAWLGMNFNPKGGTLVWQDNTAVNYSNWGPPGLGPSMLSHNSCYWIQSSSGLWRPGACTNITMGVVCGGGSGGGSGGGS
# B14: Klri1 CRD-mouse IgG2a-Fc fusion protein (Fc fusion)
# chain: FGNNFYCVFKENTKTWAESQSACEELNSHLVIIDSKAEVENLLLFEMDGWILHKMDGTNSSWLWRNDIKIQNTLTNDSEKKNHSCHYLRGNLFMPDECSAKKSYICEGGGSGGGSGGGS
# B15: Cd209b CRD-mouse IgG2a-Fc fusion protein (Fc fusion)
# chain: FLLGNCYFFSKSQRNWNDAVTACKEVKAQLVIINSDEEQTFLQQTSKAKGPTWMGLSDLKKEATWLWVDGSTLSSRFQKYWNRGEPNNIGEEDCVEFAGDGWNDSKCELKKFWICKGGGSGGGSGGGS
# B16: Mrc2_6 CRD-mouse IgG2a-Fc fusion protein (Fc fusion)
# chain: FLNKCFRIQGQDPQDRVKWSEAQFSCEQQEAQLVTIANPLEQAFITASLPNVTFDLWIGLHASQRDFQWIEQEPLLYTNWAPGEPSGPSPAPSGTKPTSCAVILHSPSAHFTGRWDDRSCTEETHGFICGGGSGGGSGGGS
# B17: Klrk1 CRD-mouse IgG2a-Fc fusion protein (Fc fusion)
# chain: HRNNCYQFFNEEKTWNQSQASCLSQNSSLLKIYSKEEQDFLKLVKSYHWMGLVQIPANGSWQWEDGSSLSYNQLTLVEIPKGSCAVYGSSFKAYTEDCANLNTYICMGGGSGGGSGGGS
# B18: Klre1 CRD-mouse IgG2a-Fc fusion protein (Fc fusion)
# chain: FRCSCYFFSKEELIWRDSQRACLSLNSSLIRMNKEEMNFFSLKSFFWVGVYYNETRRQWLWEDHSVLPSGLFSKLEANMKNFCASYKSKEAYMEENCANKLTYICKGGGSGGGSGGGS
# B19: Mrc2_5 CRD-mouse IgG2a-Fc fusion protein (Fc fusion)
# chain: FQEAEYKFFEHHSSWAQAQRICTWFQADLTSVHSQAELDFLGQNLQKLSSDQEQHWWIGLHTLESDGRFRWTDGSIINFISWAPGKPRPIGKDKKCVYMTARQEDWGDQRCHTALPYICKGGGSGGGSGGGS
# B20: Ly75_3 CRD-mouse IgG2a-Fc fusion protein (Fc fusion)
# chain: KDAESDKLCPPDEGWKRHGETCYKIYEKEAPFGTNCNLTITSRFEQEFLNYMMKNYDKSLRKYFWTGLRDPDSRGEYSWAVAQGVKQAVTFSNWNFLEPASPGGCVAMSTGKTLGKWEVKNCRSFRALSICKKGGGSGGGSGGGS
# B21: Mrc1_7 CRD-mouse IgG2a-Fc fusion protein (Fc fusion)
# chain: YGKSSYSLMKLKLPWHEAETYCKDHTSLLASILDPYSNAFAWMKMHPFNVPIWIALNSNLTNNEYTWTDRWRVRYTNWGADEPKLKSACVYMDVDGYWRTSYCNESFYFLCKGGGSGGGSGGGS
# B22: Ly75_10 CRD-mouse IgG2a-Fc fusion protein (Fc fusion)
# chain: YGGHCYASDQVLHSFSEAKQVCQELDHSATVVTIADENENKFVSRLMRENYNITMRVWLGLSQHSLDQSWSWLDGLDVTFVKWENKTKDGDGKCSILIASNETWRKVHCSRGYARAVCKIGGGSGGGSGGGS
# B23: Layn CRD-mouse IgG2a-Fc fusion protein (Fc fusion)
# chain: TRRPCYKVIYFHDAFQRLNFEEAKETCMEDGGQLVSIETEDEQRLIEKFIENLLASDGDFWIGLKRLEEKQSNNTACQDLYAWTDGSTSQFRNWYVDEPSCGSEVCVVMYHQPSAPPGIGGSYMFQWNDDRCNMKNNFICKGGGSGGGSGGGS
# B24: Klrb1c CRD-mouse IgG2a-Fc fusion protein (Fc fusion)
# chain: HRDKCFHVSQVSNTWEEGQADCGRKGATLLLIQDQEELRFLLDSIKEKYNSFWIGLRFTLPDMNWKWINGTTFNSDVLKITGVTENGSCASILGDKVTPESCASDNRWICQGGGSGGGSGGGS
# B25: Clec6a CRD-mouse IgG2a-Fc fusion protein (Fc fusion)
# chain: FGSSCYLISTKENFWSTSEQNCVQMGAHLVVINTEAEQNFITQQLNESLSYFLGLSDPQGNGKWQWIDDTPFSQNVRFWHPHEPNLPEERCVSIVYWNPSKWGWNDVFCDSKHNSICEGGGSGGGSGGGS
# B26: Klrg2 CRD-mouse IgG2a-Fc fusion protein (Fc fusion)
# chain: SQEQCYYLSEEAQDWEGSQAFCSAHHATLPLLSHTQDFLRKYRITKGSWVGARRGPEGWHWTDGVPLPYQLFPADSEDHPDFSCGGLEEGRLVALDCSSPRPWVCAGGGSGGGSGGGS
# Target: T1, human recombinant soluble ACE2 (human, UniProt Q9BYF1 18-740)
# T1 construct: also called hrsACE2
# Assay: ELISA screen
# T1 sequence (Q9BYF1 18-740 limits assumed): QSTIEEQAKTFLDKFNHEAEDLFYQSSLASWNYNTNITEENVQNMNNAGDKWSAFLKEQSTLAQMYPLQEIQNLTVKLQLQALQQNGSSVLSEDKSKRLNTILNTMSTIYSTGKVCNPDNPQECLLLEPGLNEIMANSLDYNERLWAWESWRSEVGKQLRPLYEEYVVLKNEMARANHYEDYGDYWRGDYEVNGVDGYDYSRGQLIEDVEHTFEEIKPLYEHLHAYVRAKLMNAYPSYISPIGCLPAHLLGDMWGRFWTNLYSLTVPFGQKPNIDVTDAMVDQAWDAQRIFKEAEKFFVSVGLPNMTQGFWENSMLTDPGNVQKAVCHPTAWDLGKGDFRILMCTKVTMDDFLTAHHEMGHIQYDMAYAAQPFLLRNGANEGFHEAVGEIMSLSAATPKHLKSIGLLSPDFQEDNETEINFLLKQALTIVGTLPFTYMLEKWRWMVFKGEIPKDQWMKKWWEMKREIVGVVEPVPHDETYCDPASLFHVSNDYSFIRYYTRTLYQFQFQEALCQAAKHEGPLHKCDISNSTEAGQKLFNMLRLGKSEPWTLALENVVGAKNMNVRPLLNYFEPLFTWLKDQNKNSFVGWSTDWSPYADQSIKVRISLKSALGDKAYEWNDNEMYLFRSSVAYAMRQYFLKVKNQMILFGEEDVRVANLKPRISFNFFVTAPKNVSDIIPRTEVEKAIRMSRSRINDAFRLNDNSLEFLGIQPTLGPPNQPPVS
row,Binder,Mean normalized OD
1,B1,-0.021 OD
2,B2,-0.064 OD
3,B3,-0.001 OD
4,B4,-0.005 OD
5,B5,-0.014 OD
6,B6,-0.843 OD
7,B7,-0.004 OD
8,B8,-0.001 OD
9,B9,-0.003 OD
10,B10,-0.004 OD
11,B11,-0.009 OD
12,B12,-0.004 OD
13,B13,-0.001 OD
14,B14,-0.003 OD
15,B15,-0.094 OD
16,B16,-0.019 OD
17,B17,-0.003 OD
18,B18,-0.006 OD
19,B19,-0.005 OD
20,B20,-0.003 OD
21,B21,-0.008 OD
22,B22,-0.02 OD
23,B23,-0.005 OD
24,B24,-0.004 OD
25,B25,-0.032 OD
26,B26,-0.013 OD

# Target: T2, full-length trimeric SARS-CoV-2 Spike protein (Spike-H6) (SARS-CoV-2, N-glycosylated (22 N-glycosylation sites))
# T2 construct: also called trimeric Spike; full-length Spike-H6
# Assay: ELISA screen
row,Binder,Mean normalized OD
1,B1,-0.057 OD
2,B2,0.037 OD
3,B3,0 OD
4,B4,0 OD
5,B5,0.001 OD
6,B6,0.003 OD
7,B7,0.006 OD
8,B8,0.004 OD
9,B9,0.001 OD
10,B10,-0.001 OD
11,B11,0.001 OD
12,B12,-0.014 OD
13,B13,0 OD
14,B14,0.002 OD
15,B15,-0.032 OD
16,B16,0.011 OD
17,B17,0 OD
18,B18,-0.002 OD
19,B19,-0.002 OD
20,B20,0.002 OD
21,B21,-0.002 OD
22,B22,-0.002 OD
23,B23,0.002 OD
24,B24,0.001 OD
25,B25,0.003 OD
26,B26,-0.044 OD

# Target: T3, monomeric SARS-CoV-2 receptor binding domain (RBD-H6) (SARS-CoV-2, UniProt P0DTC2 319-541)
# T3 construct: Made in HEK293-6E cells; also called RBD Spike; monomeric RBD
# Assay: ELISA screen
row,Binder,Mean normalized OD
1,B1,0.019 OD
2,B2,0.038 OD
3,B3,0.004 OD
4,B4,-0.001 OD
5,B5,0.004 OD
6,B6,0.003 OD
7,B7,0.001 OD
8,B8,0.004 OD
9,B9,0.001 OD
10,B10,0 OD
11,B11,0.003 OD
12,B12,0.007 OD
13,B13,0.003 OD
14,B14,0.001 OD
15,B15,0.113 OD
16,B16,0.006 OD
17,B17,0 OD
18,B18,0.045 OD
19,B19,0.002 OD
20,B20,0.001 OD
21,B21,0.02 OD
22,B22,0.014 OD
23,B23,0 OD
24,B24,0.004 OD
25,B25,0.029 OD
26,B26,0.043 OD
